This is an account of results in publication PMC3153955.

This data set relates to C[C@@H]1O[C@@H]1P(=O)(O)O. The data set can be described thus: pyruvate kinase-lactate dehydrogenase coupled assay. It counts as biochemical, Streptomyces wedmorensis. The following applies: 1 mM ATP, 10 mM MgCl2, 100 mM KCl, pH 7.2, 25 °C.

For the substance “FomA (fosfomycin resistance kinase FomA) (Streptomyces wedmorensis)”, the Km (usually the substrate concentration at which the rate is half of its maximum) is 9.9 ± 0.7 µM and the kcat – broadly, the maximal rate divided by the concentration of active sites – was 155.9 ± 1.5 s⁻¹.
